Measured values: patent publication US20040091855A1, “Method for production of antivirals by use of HIV-derived HR1 peptides, and trimers formed therefrom” (priority 2002, published 2004)

B1: synthetic peptide having the amino acid sequence of SEQ ID NO:38 (peptide)
peptide: QARQLLSGIVQQQNNLLRAIEATQHAVQALVWGVKQLQARVLALERYIKDQ
modifications: not checked
B2: synthetic peptide having the amino acid sequence of SEQ ID NO:39 (peptide)
peptide: QARQLVSGLVQQQNNILRALEAQQHALQATVWGIKQLQARVLALERYIKDQ
modifications: not checked

Key:
[1] = target: HIV-1 gp41 of strain HIV IIIB (on infectious virus) (HIV-1 strain HIVIIIB), P04578; test: cell-based or functional assay
[2] = target: HR2 peptide having the amino acid sequence of SEQ ID NO:33 (HIV-1); test: surface plasmon resonance (Biacore protein chip assay)
[3] = target: synthetic peptide having the amino acid sequence of SEQ ID NO:36 (trimers formed therefrom) (HIV-1 (HIVIIIB)); test: fluorescence polarization competition; 50 nM trimers of SEQ ID NO:36, 0.2 nM fluorescein-labeled HR2 peptide as competitor

Binder	Antiviral activity against HIV IIIB, IC50 (MAGI/cMAGI infectivity assay) [1] [µg/mL]	Antiviral activity against HIV IIIB, IC90 (MAGI/cMAGI infectivity assay) [1] [µg/mL]	Antiviral activity vs. HIV IIIB, IC50 (MAGI/cMAGI infectivity assay) [1] [µg/mL]	Antiviral activity vs. HIV IIIB, IC90 (MAGI/cMAGI infectivity assay) [1] [µg/mL]	further results
QARQLVSGLVQQQNNILRALEATQHAVQALVWGVKQLQARVLALERYIK (modifications not checked) [synthetic peptide having the amino acid sequence of SEQ ID NO:35]	0.14	0.69			Kd [2]: 21.8 nM
QARQLVSGLVQQQNNILRALEATQHLVQLLVWGVKQLQARVLALERYIK (modifications not checked) [peptide having the amino acid sequence of SEQ ID NO:41]	3.89	14.5			
QARQLVSGLVQQQNNILRALEATQHAVQALVWGVRQLQARVLALERYIK (modifications not checked) [synthetic peptide having the amino acid sequence of SEQ ID NO:37]	< 0.78				
QQQNNLLRAIEAQQHLLQLTVWGIKQLQARILAVERYLKDQ (modifications not checked) [HR1 peptide of native sequence having the amino acid sequence of SEQ ID NO:27]			4.69	23.2	
QQQNNLLRAIEAQQHLLQLTAWGIKQLQARILAVERYLKDQ (modifications not checked) [synthetic peptide having the amino acid sequence of SEQ ID NO:29]			2.81	5.86	
QQQNNLLRAIEAQQHLLQLTVFGIKQLQARILAVERYLKDQ (modifications not checked) [synthetic peptide having the amino acid sequence of SEQ ID NO:43]			1.34	3.81	
B1	0.18	0.88			
WMEWDREINNYTSLIHSLIEESQNQQEKNEQELLEL (modifications not checked) [HR2 peptide having the amino acid sequence of SEQ ID NO:33]					IC50 [3]: 68 nM
B2	0.26	1.2			
